The source of these data is patent publication US20180335435A1 (METAFORA BIOSYSTEMS, published 2018).

Test [1] addresses T1, human CAT1 (cationic amino acid transporter-1, SLC7A1) (human, UniProt P30825 1-629).
T1 construct: Endogenous on HEK293T cells or expressed from a human CAT1 vector in QT6, HEK293T or CHO cells; also called CAT1/SLC7A1; Hu-CAT1
Briefly: radiolabeled arginine uptake in HEK293T cells expressing BLV.RBD rFc.

In test [2] the target is T1, human CAT1 (cationic amino acid …).

T1 sequence (P30825 whole entry): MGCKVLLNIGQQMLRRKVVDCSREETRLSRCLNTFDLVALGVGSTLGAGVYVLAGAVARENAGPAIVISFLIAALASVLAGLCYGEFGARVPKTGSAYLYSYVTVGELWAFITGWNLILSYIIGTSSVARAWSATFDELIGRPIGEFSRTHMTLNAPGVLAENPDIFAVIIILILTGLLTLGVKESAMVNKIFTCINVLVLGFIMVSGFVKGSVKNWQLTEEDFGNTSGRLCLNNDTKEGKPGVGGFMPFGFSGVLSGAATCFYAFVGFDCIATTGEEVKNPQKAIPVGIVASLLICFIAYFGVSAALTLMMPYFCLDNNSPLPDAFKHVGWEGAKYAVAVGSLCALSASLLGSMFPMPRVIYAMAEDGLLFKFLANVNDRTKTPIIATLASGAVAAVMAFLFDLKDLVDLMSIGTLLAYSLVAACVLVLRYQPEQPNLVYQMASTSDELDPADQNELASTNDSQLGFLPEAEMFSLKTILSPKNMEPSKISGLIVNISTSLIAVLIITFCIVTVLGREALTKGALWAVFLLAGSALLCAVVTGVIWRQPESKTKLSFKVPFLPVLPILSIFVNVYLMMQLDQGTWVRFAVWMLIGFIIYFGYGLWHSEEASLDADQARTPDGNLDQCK

B1: BLV.RBD fused to a rabbit Fc (rFc) tag, expressed from pCSI expression vector (Fc fusion)
chain: WRCSLSLGNQQWMTTYNQEAKFFISIDQILEAHNQSPFCPRSPRYTLDFVNGYPKIYWPPPQGRRRFGARAMVTYDCEPRCPYVGADHFDCPHWDNASQADQGSFYVNHQTLFLHLKQCHGIFTLTWEIWGYDPLITFSLHKIPAPPQGSAPSTCSKPTCPPPELLGGPSVFIFPPKPKDTLMISRTPEVTCVVVDVSQDDPEVQFTWYINNEQVRTARPPLREQQFDCTIRVVSTLPIAHQDWLRGKEFKCKVHNKALPAPIEKTISKARGQPLEPKVYTMGPPREELSSRSVSLTCMINGFYPSDISVEWEKNGKAEDNYKTTPAVLDSDGSYFLYSKLSVPTSEWQRGDVFTCSVMHEALHNHYTQKSISRSPGK
notes: also called pCSI BLV.RBD rFc
For the molecule B1, the binding result in test [1] was “binds”.

B2: BLV.RBD-mFc ligand (receptor-binding domain of the bovine leukemia virus envelope glycoprotein tagged in frame with the constant fragment of mouse … (Fc fusion)
chain: WRCSLSLGNQQWMTTYNQEAKFFISIDQILEAHNQSPFCPRSPRYTLDFVNGYPKIYWPPPQGRRRFGARAMVTYDCEPRCPYVGADHFDCPHWDNASQADQGSFYVNHQTLFLHLKQCHGIFTLTWEIWGYDPLITFSLHKIPAPPQGSVDVPRDCGCKPCICTVPEVSSVFIFPPKPKDVLTITLTPKVTCVVVDISKDDPEVQFSWFVDDVEVHTAQTQPREEQFNSTFRSVSELPIMHQDWLNGKEFKCRVNSAAFPAPIEKTISKTKGRPKAPQVYTIPPPKEQMAKDKVSLTCMITDFFPEDITVEWQWNGQPAENYKNTQPIMDTDGSYFVYSKLNVQKSNWEAGNTFTCSVLHEGLHNHHTEKSLSHSPGK
notes: Used as a 1/10 dilution, detected with anti-mouse IgG1-Alexa Fluor 488; also called BLV.RBD ligand; BLV.RBD tagged with mouse Fc (mFc)
B2: the “fold increase of binding on CAT1 overexpression against empty vector” value in test [2] was determined as 3 fold.
